Bridge positions count the residues as written; N and C are the ends. Square brackets hold non-standard residues; d marks the D form. Ala(3-Me-diazirin-3-yl) = CC1(C[C@H](N)C(=O)O)N=N1; S5 = C=CCCC[C@](C)(N)C(=O)O; Nle = CCCC[C@H](N)C(=O)O; Dap = NC[C@H](N)C(=O)O
B1: SP-58 (peptide)
peptide: Ac-FIDEEVL[Nle][S5]LVI[S5][Nle]ALDSI-NH2
modifications: staple 9-13
SMILES: CCCC[C@H](NC(=O)[C@H](CC(C)C)NC(=O)[C@@H](NC(=O)[C@H](CCC(=O)O)NC(=O)[C@H](CCC(=O)O)NC(=O)[C@H](CC(=O)O)NC(=O)[C@@H](NC(=O)[C@H](Cc1ccccc1)NC(C)=O)[C@@H](C)CC)C(C)C)C(=O)N[C@@]1(C)CCCC=CCCC[C@@](C)(C(=O)N[C@@H](CCCC)C(=O)N[C@@H](C)C(=O)N[C@@H](CC(C)C)C(=O)N[C@@H](CC(=O)O)C(=O)N[C@@H](CO)C(=O)N[C@H](C(N)=O)[C@@H](C)CC)NC(=O)[C@H]([C@@H](C)CC)NC(=O)[C@H](C(C)C)NC(=O)[C@H](CC(C)C)NC1=O
B2: SP-69 (peptide)
peptide: Ac-FIDEQVL[Nle][S5]LVI[S5][Nle]ALDRI-NH2
modifications: staple 9-13
SMILES: CCCC[C@H](NC(=O)[C@H](CC(C)C)NC(=O)[C@@H](NC(=O)[C@H](CCC(N)=O)NC(=O)[C@H](CCC(=O)O)NC(=O)[C@H](CC(=O)O)NC(=O)[C@@H](NC(=O)[C@H](Cc1ccccc1)NC(C)=O)[C@@H](C)CC)C(C)C)C(=O)N[C@@]1(C)CCCC=CCCC[C@@](C)(C(=O)N[C@@H](CCCC)C(=O)N[C@@H](C)C(=O)N[C@@H](CC(C)C)C(=O)N[C@@H](CC(=O)O)C(=O)N[C@@H](CCCNC(=N)N)C(=O)N[C@H](C(N)=O)[C@@H](C)CC)NC(=O)[C@H]([C@@H](C)CC)NC(=O)[C@H](C(C)C)NC(=O)[C@H](CC(C)C)NC1=O
B3: SP-50 (peptide)
peptide: Ac-FIDEEVLS[S5]LVI[S5][Nle]ALDRI-NH2
modifications: staple 9-13
SMILES: CCCC[C@H](NC(=O)[C@]1(C)CCCC=CCCC[C@](C)(NC(=O)[C@H](CO)NC(=O)[C@H](CC(C)C)NC(=O)[C@@H](NC(=O)[C@H](CCC(=O)O)NC(=O)[C@H](CCC(=O)O)NC(=O)[C@H](CC(=O)O)NC(=O)[C@@H](NC(=O)[C@H](Cc2ccccc2)NC(C)=O)[C@@H](C)CC)C(C)C)C(=O)N[C@@H](CC(C)C)C(=O)N[C@@H](C(C)C)C(=O)N[C@@H]([C@@H](C)CC)C(=O)N1)C(=O)N[C@@H](C)C(=O)N[C@@H](CC(C)C)C(=O)N[C@@H](CC(=O)O)C(=O)N[C@@H](CCCNC(=N)N)C(=O)N[C@H](C(N)=O)[C@@H](C)CC
B4: SP-60 (peptide)
peptide: Ac-FIDEEVLA[S5]LVI[S5]AALD-NH2
modifications: staple 9-13
SMILES: CC[C@H](C)[C@H](NC(=O)[C@H](Cc1ccccc1)NC(C)=O)C(=O)N[C@@H](CC(=O)O)C(=O)N[C@@H](CCC(=O)O)C(=O)N[C@@H](CCC(=O)O)C(=O)N[C@H](C(=O)N[C@@H](CC(C)C)C(=O)N[C@@H](C)C(=O)N[C@@]1(C)CCCC=CCCC[C@@](C)(C(=O)N[C@@H](C)C(=O)N[C@@H](C)C(=O)N[C@@H](CC(C)C)C(=O)N[C@@H](CC(=O)O)C(N)=O)NC(=O)[C@H]([C@@H](C)CC)NC(=O)[C@H](C(C)C)NC(=O)[C@H](CC(C)C)NC1=O)C(C)C
B5: SP-62 (peptide)
peptide: Ac-FI[Dap]EEVL[Nle][S5]LVI[S5][Nle]ALDRI-NH2
modifications: staple 9-13
SMILES: CCCC[C@H](NC(=O)[C@H](CC(C)C)NC(=O)[C@@H](NC(=O)[C@H](CCC(=O)O)NC(=O)[C@H](CCC(=O)O)NC(=O)[C@H](CN)NC(=O)[C@@H](NC(=O)[C@H](Cc1ccccc1)NC(C)=O)[C@@H](C)CC)C(C)C)C(=O)N[C@@]1(C)CCCC=CCCC[C@@](C)(C(=O)N[C@@H](CCCC)C(=O)N[C@@H](C)C(=O)N[C@@H](CC(C)C)C(=O)N[C@@H](CC(=O)O)C(=O)N[C@@H](CCCNC(=N)N)C(=O)N[C@H](C(N)=O)[C@@H](C)CC)NC(=O)[C@H]([C@@H](C)CC)NC(=O)[C@H](C(C)C)NC(=O)[C@H](CC(C)C)NC1=O
B6: SP-63 (peptide)
peptide: Ac-FIDE[Dap]VL[Nle][S5]LVI[S5][Nle]ALDRI-NH2
modifications: staple 9-13
SMILES: CCCC[C@H](NC(=O)[C@H](CC(C)C)NC(=O)[C@@H](NC(=O)[C@H](CN)NC(=O)[C@H](CCC(=O)O)NC(=O)[C@H](CC(=O)O)NC(=O)[C@@H](NC(=O)[C@H](Cc1ccccc1)NC(C)=O)[C@@H](C)CC)C(C)C)C(=O)N[C@@]1(C)CCCC=CCCC[C@@](C)(C(=O)N[C@@H](CCCC)C(=O)N[C@@H](C)C(=O)N[C@@H](CC(C)C)C(=O)N[C@@H](CC(=O)O)C(=O)N[C@@H](CCCNC(=N)N)C(=O)N[C@H](C(N)=O)[C@@H](C)CC)NC(=O)[C@H]([C@@H](C)CC)NC(=O)[C@H](C(C)C)NC(=O)[C@H](CC(C)C)NC1=O
B7: SP-64 (peptide)
peptide: Ac-FIDEE[Dap]L[Nle][S5]LVI[S5][Nle]ALDRI-NH2
modifications: staple 9-13
SMILES: CCCC[C@H](NC(=O)[C@H](CC(C)C)NC(=O)[C@H](CN)NC(=O)[C@H](CCC(=O)O)NC(=O)[C@H](CCC(=O)O)NC(=O)[C@H](CC(=O)O)NC(=O)[C@@H](NC(=O)[C@H](Cc1ccccc1)NC(C)=O)[C@@H](C)CC)C(=O)N[C@@]1(C)CCCC=CCCC[C@@](C)(C(=O)N[C@@H](CCCC)C(=O)N[C@@H](C)C(=O)N[C@@H](CC(C)C)C(=O)N[C@@H](CC(=O)O)C(=O)N[C@@H](CCCNC(=N)N)C(=O)N[C@H](C(N)=O)[C@@H](C)CC)NC(=O)[C@H]([C@@H](C)CC)NC(=O)[C@H](C(C)C)NC(=O)[C@H](CC(C)C)NC1=O
B8: SP-68 (peptide)
peptide: Ac-FIDEEVL[Nle][S5]LVI[S5][Nle]ALD[Dap]-NH2
modifications: staple 9-13
SMILES: CCCC[C@H](NC(=O)[C@H](CC(C)C)NC(=O)[C@@H](NC(=O)[C@H](CCC(=O)O)NC(=O)[C@H](CCC(=O)O)NC(=O)[C@H](CC(=O)O)NC(=O)[C@@H](NC(=O)[C@H](Cc1ccccc1)NC(C)=O)[C@@H](C)CC)C(C)C)C(=O)N[C@@]1(C)CCCC=CCCC[C@@](C)(C(=O)N[C@@H](CCCC)C(=O)N[C@@H](C)C(=O)N[C@@H](CC(C)C)C(=O)N[C@@H](CC(=O)O)C(=O)N[C@@H](CN)C(N)=O)NC(=O)[C@H]([C@@H](C)CC)NC(=O)[C@H](C(C)C)NC(=O)[C@H](CC(C)C)NC1=O
B9: SP-70 (peptide)
peptide: Ac-FIDEQVLA[S5]LVI[S5]AALDRI-NH2
modifications: staple 9-13
SMILES: CC[C@H](C)[C@H](NC(=O)[C@H](CCCNC(=N)N)NC(=O)[C@H](CC(=O)O)NC(=O)[C@H](CC(C)C)NC(=O)[C@H](C)NC(=O)[C@H](C)NC(=O)[C@]1(C)CCCC=CCCC[C@](C)(NC(=O)[C@H](C)NC(=O)[C@H](CC(C)C)NC(=O)[C@@H](NC(=O)[C@H](CCC(N)=O)NC(=O)[C@H](CCC(=O)O)NC(=O)[C@H](CC(=O)O)NC(=O)[C@@H](NC(=O)[C@H](Cc2ccccc2)NC(C)=O)[C@@H](C)CC)C(C)C)C(=O)N[C@@H](CC(C)C)C(=O)N[C@@H](C(C)C)C(=O)N[C@@H]([C@@H](C)CC)C(=O)N1)C(N)=O
B10: SP-77 (peptide)
peptide: Ac-FIDEE[S5]LMS[S5]VIEMGLDRIKELPELWL-NH2
modifications: staple 6-10
SMILES: CC[C@H](C)[C@H](NC(=O)[C@H](Cc1ccccc1)NC(C)=O)C(=O)N[C@@H](CC(=O)O)C(=O)N[C@@H](CCC(=O)O)C(=O)N[C@@H](CCC(=O)O)C(=O)N[C@@]1(C)CCCC=CCCC[C@@](C)(C(=O)N[C@H](C(=O)N[C@H](C(=O)N[C@@H](CCC(=O)O)C(=O)N[C@@H](CCSC)C(=O)NCC(=O)N[C@@H](CC(C)C)C(=O)N[C@@H](CC(=O)O)C(=O)N[C@@H](CCCNC(=N)N)C(=O)N[C@H](C(=O)N[C@@H](CCCCN)C(=O)N[C@@H](CCC(=O)O)C(=O)N[C@@H](CC(C)C)C(=O)N2CCC[C@H]2C(=O)N[C@@H](CCC(=O)O)C(=O)N[C@@H](CC(C)C)C(=O)N[C@@H](Cc2c[nH]c3ccccc23)C(=O)N[C@@H](CC(C)C)C(N)=O)[C@@H](C)CC)[C@@H](C)CC)C(C)C)NC(=O)[C@H](CO)NC(=O)[C@H](CCSC)NC(=O)[C@H](CC(C)C)NC1=O
B11: SP-90 (peptide)
peptide: Ac-FIDEEVLM[S5]LVI[S5]MGLDRIKELPELW-NH2
modifications: staple 9-13
SMILES: CC[C@H](C)[C@H](NC(=O)[C@H](Cc1ccccc1)NC(C)=O)C(=O)N[C@@H](CC(=O)O)C(=O)N[C@@H](CCC(=O)O)C(=O)N[C@@H](CCC(=O)O)C(=O)N[C@H](C(=O)N[C@@H](CC(C)C)C(=O)N[C@@H](CCSC)C(=O)N[C@@]1(C)CCCC=CCCC[C@@](C)(C(=O)N[C@@H](CCSC)C(=O)NCC(=O)N[C@@H](CC(C)C)C(=O)N[C@@H](CC(=O)O)C(=O)N[C@@H](CCCNC(=N)N)C(=O)N[C@H](C(=O)N[C@@H](CCCCN)C(=O)N[C@@H](CCC(=O)O)C(=O)N[C@@H](CC(C)C)C(=O)N2CCC[C@H]2C(=O)N[C@@H](CCC(=O)O)C(=O)N[C@@H](CC(C)C)C(=O)N[C@@H](Cc2c[nH]c3ccccc23)C(N)=O)[C@@H](C)CC)NC(=O)[C@H]([C@@H](C)CC)NC(=O)[C@H](C(C)C)NC(=O)[C@H](CC(C)C)NC1=O)C(C)C

Each binder was assayed against T1, His6-tagged p300 (AA 323-423) (UniProt Q09472 323-423) (assay: TR-FRET HIF1a/p300 displacement; grade = IC50 >700 nM).
T1 construct: range 323-423; also called p300-CH; not shown: His6 tag
Method in brief: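 Peptides competed with HIF1α C-terminal transactivation domain for His6-p300-CH (complex 300 nM final) during 1 h at RT in 20 mM HEPES pH 7.4, 150 mM NaCl, 7.5 mM CHAPS, 1 mM DTT. Anti-Flag-K (0.5 μM) and anti-His-D2 (4 nM) were added for 2 h. IC50 was derived from the TR-FRET ratio by one-site fit.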

T1 sequence (Q09472 323-423 limits assumed): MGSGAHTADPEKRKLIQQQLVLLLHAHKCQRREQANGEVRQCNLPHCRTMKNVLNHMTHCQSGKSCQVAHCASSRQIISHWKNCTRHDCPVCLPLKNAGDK

IC50, > 700 nM:
B1
B2
B3
B4
B5
B6
B7
B8
B9
Ac-FIDEEV[Ala(3-Me-diazirin-3-yl)][Nle][S5]LVI[S5][Nle]ALDRI-NH2 (staple 9-13) [SP-71]
B10
B11

— patent publication US20190225650A1, “PEPTIDOMIMETIC MACROCYCLES AND USE THEREOF IN REGULATING HIF1ALPHA” (AILERON THERAPEUTICS, INC., priority 2013, published 2019)
